Test results taken from publication PMC7762940.

Molecular target: TubY C-terminal domain (BcYCΔ; residues 107-182) of pBc10987 from Bacillus cereus (Bacillus cereus (plasmid pBc10987))
Experiment: crystal structure; Se-substituted BcYCΔ at 1.4 mM in 10 mM Tris pH 8.0, 0.1 M NaCl, 3 mM DTT; sitting drop, 20 °C, 0.1 M HEPES pH 7.5, 0.2 M MgCl2, 30% PEG400; 2.6 Å; four monomers in the asymmetric unit

“TubY C-terminal domain (BcYCΔ; residues 107-182) of pBc10987 from Bacillus cereus (domain or fragment)” gave a stoichiometry N of 4.
